Experimental data from patent US20260183411A1, “TARGETING SORTILIN” (priority 2024, published 2026).
Bridges are numbered along the chain shown (N, C = ends). Where no end group is shown, it is not given here. Side-chain parts run from the residue outwards. [ ]: non-standard residue; d: D form. tBuAla = CC(C)(C)C[C@H](N)C(=O)O; Tle = CC(C)(C)[C@H](N)C(=O)O; linker = not defined here; Nle = CCCC[C@H](N)C(=O)O; siRNA = not defined here

T1: mouse SORT1 (76-753)-His (mouse, UniProt Q6PHU5 76-753)
T1 construct: range 76-753; Amine-coupled to CM5 chip for SPR
T1 sequence (looked up): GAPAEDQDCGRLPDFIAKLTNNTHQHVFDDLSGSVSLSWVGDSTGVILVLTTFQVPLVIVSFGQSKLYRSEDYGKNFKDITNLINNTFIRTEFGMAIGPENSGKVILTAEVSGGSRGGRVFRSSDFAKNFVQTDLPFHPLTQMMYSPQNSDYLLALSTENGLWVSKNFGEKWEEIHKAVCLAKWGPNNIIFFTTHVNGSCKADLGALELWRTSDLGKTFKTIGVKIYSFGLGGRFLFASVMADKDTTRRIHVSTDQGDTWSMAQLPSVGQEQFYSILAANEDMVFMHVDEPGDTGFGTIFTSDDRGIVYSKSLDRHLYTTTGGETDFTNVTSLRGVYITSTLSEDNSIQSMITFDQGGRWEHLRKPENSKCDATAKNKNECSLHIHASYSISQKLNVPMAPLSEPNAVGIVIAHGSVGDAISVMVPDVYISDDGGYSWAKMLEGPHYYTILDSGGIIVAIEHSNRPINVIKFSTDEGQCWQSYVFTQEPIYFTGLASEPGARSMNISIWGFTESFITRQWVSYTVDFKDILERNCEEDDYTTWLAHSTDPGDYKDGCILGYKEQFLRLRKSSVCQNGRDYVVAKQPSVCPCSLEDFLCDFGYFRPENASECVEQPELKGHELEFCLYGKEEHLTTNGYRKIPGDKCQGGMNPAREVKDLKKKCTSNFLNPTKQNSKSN

T2: Human SORT1 (78-755)-His (human, UniProt Q99523 78-755)
T2 construct: range 78-755; Amine-coupled to CM5 chip for SPR; Two suppliers are named (Acrobiosystems, GenScript)
T2 sequence (looked up): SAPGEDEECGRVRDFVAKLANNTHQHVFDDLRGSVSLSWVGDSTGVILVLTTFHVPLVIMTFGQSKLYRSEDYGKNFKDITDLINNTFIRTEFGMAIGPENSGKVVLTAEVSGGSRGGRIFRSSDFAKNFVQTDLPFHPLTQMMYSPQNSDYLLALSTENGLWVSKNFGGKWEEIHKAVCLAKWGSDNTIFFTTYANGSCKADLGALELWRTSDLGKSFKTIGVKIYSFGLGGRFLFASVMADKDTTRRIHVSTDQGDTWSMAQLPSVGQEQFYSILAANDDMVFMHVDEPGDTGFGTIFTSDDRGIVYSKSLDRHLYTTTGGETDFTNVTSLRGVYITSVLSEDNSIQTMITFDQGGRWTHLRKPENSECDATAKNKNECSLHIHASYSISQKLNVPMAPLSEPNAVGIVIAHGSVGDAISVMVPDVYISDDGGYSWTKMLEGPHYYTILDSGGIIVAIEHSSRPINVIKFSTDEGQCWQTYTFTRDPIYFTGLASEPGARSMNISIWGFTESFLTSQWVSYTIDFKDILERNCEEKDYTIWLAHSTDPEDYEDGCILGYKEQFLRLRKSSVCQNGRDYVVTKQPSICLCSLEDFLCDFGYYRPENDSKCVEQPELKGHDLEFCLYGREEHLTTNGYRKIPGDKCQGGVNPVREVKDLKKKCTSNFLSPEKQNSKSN


What was measured:
[1] = Murine plasma stability assay; assay type: in vitro ADME; conditions: mouse, 2 μM, 37° C., read-out: Murine plasma stability assay, T1/2
Procedure: Frozen plasma was thawed at 37° C. and centrifuged at 4000 rpm to remove any clots and transferred to 96-well reaction plates by WuXi AppTec. Test compounds were added to the reaction plate at a final concentration of 2 μM and either stopped immediately or incubated at 37° C. for 5 minutes, 10 minutes, 30 minutes, 60 minutes, or 120 minutes. At the end of incubation, stop solution consisting of 200 ng/mL tolbutamide and 200 ng/mL labetalol in ACN was added to precipitate protein and mixed thoroughly. Samples were then transferred to a bioanalysis plate and shaken for 10 minutes prior to HPLC-MS/MS analysis of percent remaining compound.
Table 14 tabulates the plasma stability for each of the three PDCs tested.

mouse SORT1 (76-753)-His = target: T1, mouse SORT1 (76-753)-His; assay: SPR (Biacore 8K), SORT1 on CM5 chip, siRNA-peptide conjugate as analyte, 1:1 model
Procedure: (§1) SPR analysis was performed on Series S CM5 chips (Cytiva) using a Biacore 8K instrument (Cytiva). Sensorgrams were double-referenced by subtracting the response on both a reference flow cell and a blank sample. Human SORT1 (78-755)-His (Acrobiosystems), human SORT1 (78-755)-His(GenScript), mouse SORT1 (76-753)-His (R&D Systems), rat SORT1 (76-752)-His (GenScript), and cyno SORT1 (76-753)-His (GenScript) were diluted to 20-60 μg/mL in 10 mM sodium acetate pH 4.5 buffer and immobilized onto Series S CM5 chips using amine coupling at a flow rate of 10 μL/min for 45-100 s.
(§2) Ten start-up cycles and a blank cycle preceded each analysis run. The runs were performed by sequential injections of analyte (0-20 nM, 3-fold serial dilutions) with a 90 s association and 900 s dissociation at a flow rate of 30 μL/min, followed by two regeneration cycles with 2 M MgCl2 for 90 s at a flow rate of 10 μL/min. […] Five start-up cycles and a blank cycle preceded each analysis run. The runs were performed by sequential injections of analyte (0-25 nM) with a 150 seconds (s) association and 300 s dissociation at a flow rate of 30 μL/min, followed by a regeneration with 2 M MgCl₂ for 200 s at a flow rate of 10 μL/min. The kinetic rate constants (kₐ and kd) and the equilibrium binding constant (Kd) were calculated using a 1:1 kinetic binding model on the Biacore Insight Evaluation Software (Cytiva).
(§3) SPR analysis was performed on Series S CM5 chips (Cytiva) using a Biacore 8K instrument (Cytiva). Sensorgrams were double-referenced by subtracting the response on both a reference flow cell and a blank sample. The SPR analysis was conducted using four different SORT1 species: Human SORT1, Mouse SORT1, Rat SORT1, and Cyno SORT1. The samples were prepared according to the general procedure described above herein. The kinetic rate constants (ka and […]) and the equilibrium binding constant (Kd) were calculated using a 1:1 kinetic binding model on the Biacore Insight Evaluation Software (Cytiva).

Human SORT1 (78-755)-His = target: T2, Human SORT1 (78-755)-His; assay: as above
Procedure: as §1, §2, §3

Row | Molecule | half-life [1] [min] | Kd (mouse SORT1 (76-753)-His) [nM] | Kd (Human SORT1 (78-755)-His) [nM]
1 | CC[C@H](C)[C@@H]([C@@H](CC(=O)N1CCC[C@H]1[C@H](OC)[C@@H](C)C(=O)N[C@H](C)[C@@H](O)c1ccccc1)OC)N(C)C(=O)[C@@H](NC(=O)[C@H](C(C)C)N(C)C(=O)OCc1ccc(NC(=O)[C@H](CCCNC(N)=O)NC(=O)[C@@H](NC(=O)CCCC(=O)NCCC(=O)N(C)CC(=O)N(C)CC(=O)N(C)CC(=O)N(C)CC(=O)N[C@@H](C)C(=O)N2CCC[C@H]2C(=O)N[C@@H](CCCNC(=N)N)C(=O)N[C@@H](Cc2c[nH]c3ccccc23)C(=O)N[C@@H](CC(=O)O)C(=O)N[C@@H](C)C(=O)N2CCC[C@H]2C(=O)N[C@@H](CC(C)C)C(=O)N[C@@H](CCCNC(=N)N)C(=O)N[C@@H](CC(=O)O)C(=O)N2CCC[C@H]2C(=O)N[C@@H](C)C(=O)N[C@@H](CC(C)C)C(=O)N[C@@H](CCCNC(=N)N)C(=O)N[C@@H](CCC(N)=O)C(=O)N[C@@H](CC(C)C)C(=O)N[C@@H](CC(C)C)C(=O)O)C(C)C)cc1)C(C)C [PRGN_WT_PDC] | 17.1 |  | 
2 | RWCENK([linker-siRNA])R[Nle]FTCRQ[Tle][tBuAla] (disulfide 3-11 (inferred); not fully specified; printed as RWCENKR(Nle)FTCRQ(B13)(F02); reading uncertain, also called SORT1 peptide 3 siRNA conjugate) [SORT1 peptide 3 conjugate] |  | 178 | 108
